Data reported in paper PMC4705688.

Target: His-Cmr (Mycobacterium tuberculosis H37Rv, UniProt P9WMH5 1-244)
Assay: EMSA

His-Cmr, sequence (P9WMH5 whole entry): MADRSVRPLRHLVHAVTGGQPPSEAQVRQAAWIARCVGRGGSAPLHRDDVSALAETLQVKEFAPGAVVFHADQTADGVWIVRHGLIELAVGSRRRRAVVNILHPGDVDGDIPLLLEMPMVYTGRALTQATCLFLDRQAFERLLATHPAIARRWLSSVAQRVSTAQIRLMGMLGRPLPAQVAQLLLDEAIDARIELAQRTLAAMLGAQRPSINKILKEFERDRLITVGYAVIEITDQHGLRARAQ

B1: 1C1 40 bp overlap (dsDNA)
DNA 1: GCGTGGTTCAGCTTGTCACCGGTGACACTGTGTTGGCTTC
DNA 2: GAAGCCAACACAGTGTCACCGGTGACAAGCTGAACCACGC
B1: binds.
